The target of the assay is FtsZ-Alexa488 (Cys-FtsZ labeled with Alexa488-maleimide). The assay can be described thus: TIRF microscopy, single particle tracking.

The values below come from article PMC4019675.

The substance “FtsZ-Cy5 (Cys-FtsZ labeled with Cy5-maleimide) (natural protein)” registered an average lifetime of FtsZ monomers in the filament network of 7.16 s.
